In general, pKd refers to the Kd on a negative log10 scale, so that one unit is a factor of ten. By pEC50 is commonly meant the negative decadic logarithm of the EC50, by convention in mol/L.

pEC50, pKd: −log10 of the molar value.

Assay [1] addresses soluble human neonatal Fc receptor (FcRn alpha chain extracellular domain + beta2-microglobulin) (UniProt P55899+P61769). In words: SPR. Conditions: pH 6.0, PBS (concentration not stated), adjusted to pH 6.0 or pH 7.4.
In assay [2] the target is recombinant cynomolgus monkey FcRn (cynomolgus monkey) (UniProt Q8SPV9). Nature of the assay: BLI. (In general: BLI is a label-free optical method that tracks binding on a fibre tip over time.)
UniProt Q8SPV9, sequence (Q8SPV9 24-297, chain 1 of 2): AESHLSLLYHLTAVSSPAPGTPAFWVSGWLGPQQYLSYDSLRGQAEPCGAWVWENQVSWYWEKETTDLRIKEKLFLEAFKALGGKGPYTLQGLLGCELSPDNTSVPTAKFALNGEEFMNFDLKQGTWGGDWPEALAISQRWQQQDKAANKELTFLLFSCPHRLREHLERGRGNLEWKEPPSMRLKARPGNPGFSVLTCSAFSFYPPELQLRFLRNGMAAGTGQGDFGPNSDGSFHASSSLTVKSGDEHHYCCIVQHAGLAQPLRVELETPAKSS
UniProt Q8SPV9, sequence (Q8SPW0 21-119, chain 2 of 2, further chain): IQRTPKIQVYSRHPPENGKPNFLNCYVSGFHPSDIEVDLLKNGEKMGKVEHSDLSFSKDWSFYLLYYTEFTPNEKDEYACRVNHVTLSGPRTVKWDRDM
For assay [3], the target named is motavizumab IgG1 with Fc variant DF183 (human). In words: SPR.
Assay [4] concerns the target motavizumab IgG1 with Fc variant DF197 (human). Nature of the assay: SPR. A general note: Surface plasmon resonance follows binding to a sensor surface in real time, without labels.
The target of assay [5] is motavizumab IgG1 with Fc variant DF213 (human). Nature of the assay: SPR.
For assay [6], the target named is motavizumab IgG1 with Fc variant DF215 (human). In words: SPR.
The target in assay [7] is motavizumab IgG1 with wild type Fc (human). In words: SPR.
Assay [8] addresses Fcγ receptor IIIa (V176 or F176, not told which) (UniProt P08637).
UniProt P08637, sequence (P08637 17-208): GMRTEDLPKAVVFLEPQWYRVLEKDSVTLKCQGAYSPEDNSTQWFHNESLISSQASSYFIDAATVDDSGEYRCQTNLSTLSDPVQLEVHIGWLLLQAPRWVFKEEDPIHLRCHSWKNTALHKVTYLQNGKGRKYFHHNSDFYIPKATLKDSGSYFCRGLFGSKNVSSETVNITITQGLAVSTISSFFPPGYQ
For assay [9] the target is unchanged. In words: ELISA. Background: An ELISA detects its analyte on a solid surface through an enzyme-linked reagent.

“motavizumab IgG1 DF183 T256D;Q311V;A378V”: in [1], the ka worked out at 1.93e+06 M⁻¹ s⁻¹ and the kd amounted to 0.0402 s⁻¹.
In the same order, the values of “motavizumab IgG1 DF197 H285N;T307Q;N315D” are 1.59e+06 M⁻¹ s⁻¹ and 0.0328 s⁻¹.
For “motavizumab IgG1 DF213 H285D;T307Q;A378V”, in [1], the ka was found to be 800000 M⁻¹ s⁻¹ and the kd was found to be 0.0192 s⁻¹.
For the substance “motavizumab IgG1 DF215 T307Q;Q311V;A378V”, in assay [1], the ka was 1.37e+06 M⁻¹ s⁻¹ and the kd amounted to 0.027 s⁻¹.
In the same order, the values of “motavizumab IgG1 DF228 T256D;H286D (as printed; probably N286D);T307R;Q311V;A378V” are 1.39e+06 M⁻¹ s⁻¹ and 0.0142 s⁻¹.
For the substance “motavizumab with wild type human IgG1 Fc (antibody)”, in [2], the pKd is 7.86.
On to “recombinant human FcRn heterodimer (α-FcRn extracellular domain with β2M) (from UniProt P55899 24-297; P61769 21-119) (complex)”, for which the pKd in assay [3] is 7.68; in assay [4], 7.68; in [5], 7.62; in [6], 7.72; in [7] it was 6.08.
The substance “rituximab IgG1 with Fc variant DF183 (antibody)” came in with an ADCC EC50 (ADCC Reporter Bioassay, rituximab Fab, WIL2-S cells) in [8] of 3.92 ng/mL. In addition, the pEC50 in assay [9] was 7.06.
For “rituximab IgG1 with Fc variant DF197 (antibody)” the same measures were 8.3 ng/mL and 7.01.
In the same order, the values of “rituximab IgG1 with Fc variant DF213 (antibody)” are 4.01 ng/mL and 6.86.
In the same order, the values of “rituximab IgG1 with Fc variant DF215 (antibody)” are 2.73 ng/mL and 6.85.
In [8], “rituximab IgG1 with Fc variant DF228 (antibody)” came in with an ADCC EC50 (ADCC Reporter Bioassay, rituximab Fab, WIL2-S cells) of 2.66 ng/mL. The pEC50 in assay [9] was 6.81.
“rituximab IgG1 with Fc variant LS (antibody)” showed a pEC50 in assay [9] of 6.72.
With “rituximab IgG1 with Fc variant YTE (antibody)”, the ADCC EC50 (ADCC Reporter Bioassay, rituximab Fab, WIL2-S cells) in assay [8] turned out to be 15 ng/mL. The negative logarithm of the EC50 (pEC50) in [9] is 5.99.
Substance “rituximab IgG1 with wild type Fc (antibody)” had a pEC50 in assay [9] of 6.27.
